According to the nanobody polyreactivity screen of Harvey et al. (2022):

Assay: yeast display, Sf9 membrane polyspecificity reagent, FACS + sequencing; frameworks hold sequencing errors
In short: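 Using colony PCR, genes from sorted yeast display clones were amplified, then sequenced on MiSeq at 2 × 250 and filtered by CDR length. The clones had been stained with 10% biotinylated, detergent-solubilized Sf9 membrane reagent for 1 hour at 4 °C and sorted by FACS into low and high (top ~1%) gates on anti-HA and streptavidin fluorescence. Polyreactivity labels come from the gate of origin.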

| Sequence | polyreactivity (PSR sort gate) |
| --- | --- |
| QVQLVESGGGLVQAGGSLRLSCAASGRTYVDYAMGWYRQAPGKEREFDAAITWSGGSTYYADSVKGRFTISRDYAKNTVYLQMTSLKPEDTEVYYCNRDTNVGVLNYKFYDGPERDYWGQGTQVTVSS | low polyreactivity |
| QVQLVESGGGLVQAGGSLRLSCAASGIILDRNAMGWYRQAPGKERELVAAINSIGGSTYYADSVKGRFTISRDTAKNTVYLQMNSLKPEDTAVYYCNVAQRYYGNFFSSRYEYWGQGTQVTVSS | low polyreactivity |
| QVQLVETGGGLVQAGGSLRLICAASGSIFQGNVMGWYRQAPGKERELVAAISSGGRTYYADSVKGRFTISRDNAKNTVYLQMNSLKPEDTAVYYCAASWLTSYAYIMYYWGQGTQVTVSS | high polyreactivity |
| QVQLVESGGGLVQAGGSLRLSCAASGRTLGDYDMGSYRQAPGKERELVAAINWSGGDTYYADSVKGRFTISRDNANNTVYLQMNSLKPEDSAVYYCNADYVYTRYDYWGQGTQVTVSS | high polyreactivity |
| QVQLVESGGGLVQAGGSLRLSCAASGSIFWANAMGWYRQAPGNERELVAAISRSGTSTFYADSVKGRFTISRDNAKNTVYLQMNSLKPEDTAVYYCNAVGSGYRSWYVYWGQGTQVTVSS | high polyreactivity |
| QVQHVESGGGLVQAGGSLRLSCAASGRTFRYNAMGWSRQAPGKERELVAAISSGDRTNYADSVKGRFTISRDNAKYTVYLQMYSLKPEDTAVYYCAAQTDSYYDFDYWGQGTQVTVSS | low polyreactivity |
| QVQLVESGGGLVQAGGSLRLSCAASGYIFCGYAMGWYRQAPGKERELVAAINRGGSTYYADSVKGRFTISRDNAKNTVYLQMNSLKPEDTAVYYCAARLLYYNSIKRYYWGQGTQVTVSS | high polyreactivity |
| QVQLVESVGGLVLAGARLRLSCAASGRIFRFYAMGWYREAPGKERELVAAISSGGRTYSADSVKGRFTISRDNAKNTVYLQMNSLKPEDTAVYYCNTPYTVRGRYTSDYWGQGTQVTVSS | high polyreactivity |
| QVQLVESGGGLVQAGGSLRLSCAASGRILGYYAMGWYRQAPGKERELVAAITYSGGSTYYADSVKGRFTISRDNAKNTVYLQMNSLKPEDTAVYYCAADKWLLGLYGSTWNDYWGQGTQVTVSS | low polyreactivity |
| QVQLVDSGGGLVQAGGSLRLSCAASGFTFYAYGRGWNRQAPGKERELVATITWCGGNTYYADSVKGRFTISRDNAKNTVYLQMNSLKPEDTAVYYCAARLPSPIRPSRGYYDYWGQGTQVTVSS | low polyreactivity |
| QVQLVESGGGLVQAGGSLRLSCAASGGTLSYYAMGWYRQAPGKERELVAGISRRGGSTYYADSVKGRFTISRDNAKNTVYLQMNSLNPEDTAVYYCAADSNRHYYYWGQGTQVTVSS | high polyreactivity |
| QVQLVESGGGLVQAGGSLRLSCAASGFTFSSYTMGWYRQAPGKEREFVAAISRRTGRTYYADSVKGRFTISRDYAKNTVYLQMNSLKPEDTAVFYCAADLYYYGFFWDFGDGFDYWGQGTQVTVSS | high polyreactivity |
| QVQLVESGGGLVQAGGSLRLSCAATGRTFGFNDMGWYRKATGKEREFVAAINSGGNTYYADSVKGRFTISRDNAKNTVYLQMNSLKPEDTAVYECAVKRASRYYVRKEYYYWGQGTQVTVSS | high polyreactivity |
| QVQLVESGGGLVQAGGSLRLSCAASGRIIGYYAMGWYRQAPGKEWELVAAITSSGSRTYYADSVKGRFTISRDNAKNTVYLQMNSLKPDDTAVYYCATTKVYYSAKSSYYYWGQGNQVTVSS | high polyreactivity |
| QVQLVESGGGLVQAGGSLRLSCAASGNTFTYYAMGWYRQAPGKERELVAAINIDVASTYYADSVKGRFTISRDNAKNTVYLQMNSLKPEDTAVYYCAAEVGVYPVYWYDYWGQGTQVTVSS | low polyreactivity |
| QVQLVESGGGLVQAGGSLRLSCAASGNTFGFNAMGWYTQAPGKERELVAAIRRGSGRTYYADSVKGRFTISRDNAKNTVYLQMNSLKPEDTAVYYCAAAPTTGKRPGYYYWGLGTQVTVSS | high polyreactivity |

| Sequence | polyreactivity (PSR sort gate) |
| --- | --- |
| QVQLVESGGGLLHAGGSLRLSCAASGRTFPSYAMGWYRQAPGKERELVAAISSRGSRTYYADSVKGRFTISRDNAKNTVYLQMYSLKPEDTAVYYCAAKNLWTRKSRYDYWGQGTQVTVSS | high polyreactivity |
| QVQLVESGGGLVQAGGSLRLSCAASGLTFYYYAMGWYRQAPGKERELVATISGSGGNTYYADSVKGRFTISRDNAKNTVFLQMNSLKPEDTAVYYCNARYRWWLYYSRDRVYYWGQGTQVTVSS | high polyreactivity |
| QVQLVESGGGLVQAGGSLRLSCAASGIIFYYYTMGWYRQAPGKETELVASITWSGGGSTYYADSVKGRFTISRDNAKNTVYLQMNSLKPEDTAVYYCNADEYYSYDYWGQGTQVTVSS | low polyreactivity |
| QVQLVESGGGLVQAGGSLRLSCAASGSIFFRNAMGRYRPAPGKERELVAAISKSGGSTYYADSVKGRFTISRDNAKNTVYLQMNSLKPEDTAVYYCAAERTFLYWAYDYWGQGTQVTVSS | high polyreactivity |
| QVQLVESGGGLVQAGGSLRLSCAASGSTFVGNAMGWYRQAPGKERELVAAITGGGGSTYYADSVKGRFTISRDNAKNTVYLQMNSLKPEDTAVYSCARDRTDYYVWYVRYYYWGQGTQVTVSS | low polyreactivity |
| QVQLVESGGGLDQAGGSLRLSCAASGGTFDTYAMGWYRQAPGKERELVAGIDWSGGSTYYADSVKGRFTISRDNAKNTVYLQMNSLKPEDTAVYYCAADYYYPSQMDYWGQGTQVTVSS | low polyreactivity |
| QVQLVESGGGLVQAGGSLRLSCAASGSTFVSNAMGWDRQAPGQEREVVAALSSGGSPYYADSVKGRFTISRDNAKNTVYLQMNRLKPEDTAVYYCNKRRGRKWPGNYSVVKLLMGYWGQGTQVTVSS | low polyreactivity |
| QVQLVESGGGLVQAGGSLRLSCAASGRTFGYNAMGWYRKAPGKEREFVAAISWSGGRTYYADSVKGRFTISRDNAKNTVYLQMNSLKPEDTAVYYCAAGFGDGPGNGYYTRYSWDDDYWGQGTQVTVSS | low polyreactivity |
| QVQLVESGGGLVQAGGSLRLSCAASGFIITQYAMGWYSQEPGKERELVAAISGNGGRTYYADSVKGRFTISRDNAKYTVYLHLISLKPEDTAVYYCAVTYYWYGVRYDYWGQCTQVTVSS | high polyreactivity |
| QVQLQESGGGLVQEGGSLRLSCAASGNISPPADMGWYRQAPGKERELVASIGTGGTTNYADSVKGRFTISRDNAKNTVYLQMNSLQPDDTAVYYCAAVRYEYNPYDYWGQGTQVTVSS | low polyreactivity |
| QVQLVESGGGLVQAGGSLRLSCAASGRIFTTYVMGWYRQAPGKERELVAAISARGSTYYADSVKGRFTISRDNAKNTVYLQMNSLKPEDTAVYYCAAGHRLPVYYGYPRATYNYWGQGTQVTVSS | low polyreactivity |
| QVQLVESGGGLVQAGGSLRLSCAASGFIFVNYMGWYRQAPGKERELVAAISRGGSTNYADSVKGRFTISRDTAKNTVYLQMNSLKPEDTAVYYCAAETWYSGYTYDSCGQGTQVTVSS | low polyreactivity |
| QDQHVESGGGLVQAGGSLRLSCAASGSTYRDNAMGWSRQAPGKERELVAAISVSGASTYYADSVKGRFTISRDNAKNTVYLQMNSLKPEDTAVYDCAKSLYQALSLSFFIFGYWGQGTQVTVSS | low polyreactivity |
| QVQLLESGGGLVQAGGSLRLSCAASGYTFRFNAMGWNRQAPGKETEFVAAIDFGGAGTYYADSVKGRFTISRDNAKNTVYLQMNSLKPEDTAVYYCNARDGVTTEFDYWGQVTQVTVSS | low polyreactivity |
| QVQLVESGGGLVQAGGSLRLSCAASGSIFQIYAMGWYRQAPGKERELVATISSGGRTTYADSVKGRFTISRDNAKNSVYLQMNSLKPEDTAVYYCAAKLEWLSHYYYWGQGTQVTVSS | low polyreactivity |
